Measurements published in paper PMC4987513, “Phytochrome B and REVEILLE1/2-mediated signalling controls seed dormancy and germination in Arabidopsis”.

How the values were obtained:
Conditions in all cases: protein: recombinant; tags: His; blunt
[1] = target: T1, HIS-RVE1 (Arabidopsis thaliana, UniProt F4KGY6 1-387); test: competition; unlabelled 50x excess vs biotin-E4 probe; no effect on shift; LightShift Chemiluminescent EMSA Kit (Pierce) per manufacturer, 5% polyacrylamide gel; buffer, salt, pH and temperature not stated
T1 sequence (F4KGY6 whole entry): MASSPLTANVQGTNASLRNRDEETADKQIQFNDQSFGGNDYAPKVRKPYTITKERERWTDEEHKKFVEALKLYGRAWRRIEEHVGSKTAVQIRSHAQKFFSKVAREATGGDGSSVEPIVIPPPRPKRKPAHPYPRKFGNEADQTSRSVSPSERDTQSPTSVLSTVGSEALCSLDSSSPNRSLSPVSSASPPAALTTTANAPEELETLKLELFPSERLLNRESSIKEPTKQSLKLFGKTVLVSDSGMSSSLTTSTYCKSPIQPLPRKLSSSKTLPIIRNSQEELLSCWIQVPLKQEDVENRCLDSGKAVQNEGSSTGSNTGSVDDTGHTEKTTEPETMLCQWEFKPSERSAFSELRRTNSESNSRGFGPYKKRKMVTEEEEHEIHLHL

[2] = target: T1, HIS-RVE1; test: EMSA; LightShift Chemiluminescent EMSA Kit (Pierce) per manufacturer, 5% polyacrylamide gel; buffer, salt, pH and temperature not stated
[3] = target: T1, HIS-RVE1; test: competition; unlabelled 50x excess vs biotin-E3 probe; no effect on shift; LightShift Chemiluminescent EMSA Kit (Pierce) per manufacturer, 5% polyacrylamide gel; buffer, salt, pH and temperature not stated

B1: GA3ox2 E4 (3 copies) mutant (dsDNA)
DNA 1: AAGTACGTCTCAGTACCAAAAAGTACGTCTCAGTACCAAAAAGTACGTCTCAGTACCAAA
DNA 2: TTTGGTACTGAGACGTACTTTTTGGTACTGAGACGTACTTTTTGGTACTGAGACGTACTT
- binding result [1]: no binding

B2: GA3ox2 E4 (3 copies) WT (dsDNA)
DNA 1: AAGTATCATATCATACCAAAAAGTATCATATCATACCAAAAAGTATCATATCATACCAAA
DNA 2: TTTGGTATGATATGATACTTTTTGGTATGATATGATACTTTTTGGTATGATATGATACTT
- binding result [2]: binds

B3: GA3ox2 E3 (3 copies) WT (dsDNA)
DNA 1: GTTTAACGATATTAGTTTTTGTTTAACGATATTAGTTTTTGTTTAACGATATTAGTTTTT
DNA 2: AAAAACTAATATCGTTAAACAAAAACTAATATCGTTAAACAAAAACTAATATCGTTAAAC
- binding result [2]: binds

B4: GA3ox2 E3 (3 copies) mutant (dsDNA)
DNA 1: GTTTAACGGGATAGGTTTTTGTTTAACGGGATAGGTTTTTGTTTAACGGGATAGGTTTTT
DNA 2: AAAAACCTATCCCGTTAAACAAAAACCTATCCCGTTAAACAAAAACCTATCCCGTTAAAC
- binding result [3]: no binding
